The results in this text go back to publication PMC11279616 (Pharmaceuticals, 2024).

The target of this experiment is SARS-CoV-2 Omicron BA.5 sublineage receptor binding domain (RBD) (SARS-CoV-2) (UniProt P0DTC2). Nature of the experiment: SPR.

Where “and” joins values, the source holds several entries; their conditions need not be identical. Equal entries are not always repeated.

As to DPP4_(270–295) peptide, the Kd was 1200 nM and 1530 nM; the koff was 0.0014 s⁻¹; the kon is 1160 M⁻¹ s⁻¹.
